# “Also recorded” adds a separate entry of the source.
# B1: TRIAPα: aptamer of 154 amino acids: variable region of 42 amino acids inserted into the thioredoxin protein; tested as GST fusion (protein)
# chain: MSDKIIHLTDDSFDTDVLKADGAILVDFWAEWCGPAREGADGAICGYNLATLVMLGPSERVFCPLCEPCSSDIYELMGPCKMIAPILDEIADEYQGKLTVAKLNIDQNPGTAPKYGIRGIPTLLLFKNGEVASATKVGALSKGQLKEFLDANLA
# How the values were obtained:
# [1] = tested on: ectopically expressed TrioGEFD2 in PC12 cells; experiment: NGF-induced neurite outgrowth in PC12 cells expressing TrioGEFD2; assay type: cell-based; conditions: PC12 co-transfected with TrioGEFD2, NGF 50 ng/ml 16 hours
# Experimental: FIG. 5C represents the inhibition by TRIPα of the TrioGEFD2 effect in neuronal morphology. Immunofluorescence images of PC12 cells co-transfected with HA-TrioGEFD2 and either GFP-TRIPα (panels d, e, f) or GFP alone panels a, b, c) are shown. After 48 hours of expression, cells were treated for 16 hours with NGF (nerve growth factor) (50 ng/ml) and fixed. Expression of GFP and GFP-TRIPα was directly visualised (a, d) whereas overexpressed TrioGEFD2 was detected using the 12CA5 anti-HA antibody followed by AMCA-conjugated anti-mouse IgG (b, e). Filamentous actin was stained with Rhodamine-conjugated Phalloidin (c, f). Scale bar: 20 μm.
# Cells were transfected with HA-tagged TrioGEFD2 (left side of the figure), myc-tagged KalGEFD2 (middle of the figure) or RhoAV14 (a constitutively active mutant of RhoA) (right side of the figure), and with either GFP-TRIPα (white bars), GFP-TRIPβ (hatched bars) or GFP alone (black bars). Cells were processed as described in FIG. 5C and the number of co-transfected cells with neurites was counted.
# Numerous reports have established Rho-GTPases as key regulators of neuronal morphology (Luo, 2000). In neuronal cell lines, activation of RhoG, Rac and Cdc42 induces neurite outgrowth, while RhoA stimulation antagonises this effect by promoting neurite retraction (Katoh et al., 2000; Kozma et al., 1997; Yamaguchi et al., 2001). The PC12 cell line is a useful cellular model for studying Nerve Growth Factor (NGF)-induced neuronal differentiation. PC12-E2 cells were plated on collagen-coated 12 mm coverslips as described previously (Estrach et al., 2002) and transfected with the Lipofectamine Plus reagent (Life Technologies) according to the manufacturer's instructions. After transfection and differentiation with NGF (Promega, 50 ng/ml in DMEM medium supplemented with 0.5% horse serum (HS)) for 16 hours, PC12 cells were fixed and permeabilised as described (Estrach et al., 2002). […] Images were recorded using a Hamamatsu CCD camera. All transfections were repeated at least three times, and an average of 200 cells was counted each time. […]
# TrioDH2 (a.a. 1848-2096) = target: T1, TrioDH2 (a.a. 1848-2096) (Homo sapiens, UniProt O75962); experiment: Binding specificity of aptamers in yeast; conditions: growth on selective medium
# T1 construct: TrioDH2 (a.a. 1848-2096); expressed in transfected cells; host or cells: yeast
# Description: (§1) Trx represents the thioredoxin protein with no inserted peptide.
# In order to identify specific inhibitors of TrioGEFD2, a recently developed strategy was used, this strategy being derived from the yeast two hybrid system, where the cDNA library of preys has been replaced by a combinatorial library of short peptides (20 amino acids) in fusion with the bacterial protein thioredoxin A (Colas et al., 1996). This strategy has been successfully used to isolate specific inhibitors of the cyclin-dependent kinases (Cdks), the cell cycle transcription factor E2F, or the viral HPV16 E6 oncoprotein and HBEV core protein (Colas et al., 1996; Butz et al., 2001; Fabrizzio et al., 1999; Geyer et al., 2000). The TrioGEFD2 bait was constructed as follows: plasmid pMTHATrio1848-2298 (Bellanger et al., 1998) was digested with EcoRI/XhoI and the insert cloned in pEG202EcoRI/XhoI to generate the bait pEG202TroGEFD2. Yeast strain EGY048 (Colas et al., 1996) was transformed with pEG202TrioGEFD2 and subsequently with the library of Thioredoxin constrained aptamers according to standard procedures (Ito et al., 1983). After transformation, cells were allowed to recover for 4 hours in galactose containing medium before plating on selective galactose medium. Of the 2×10^6 screened colonies, those growing in the selective medium were recovered and retested for interaction. […]
# GEFD2 domain of Kalirin = target: T2, GEFD2 domain of Kalirin (Rattus norvegicus, UniProt P97924); experiment: Binding specificity of aptamers in yeast; design: key to Binding in yeast: +++^1 and +^1 represent respectively a full and a partial (see FIG. 1) binding capacity; +++^1 and +^1 represent respectively a full and a partial (see FIG. 1) binding capacity; −−^1 represents a lack of binding
# T2 construct: GEFD2 domain of Kalirin (a.a. 1640-1980); expressed in transfected cells; host or cells: yeast
# Description: as §1
# (§2) In order to identify specific inhibitors of TrioGEFD2, a recently developed strategy was used, this strategy being derived from the yeast two hybrid system, where the cDNA library of preys has been replaced by a combinatorial library of short peptides (20 amino acids) in fusion with the bacterial protein thioredoxin A (Colas et al., 1996). This strategy has been successfully used to isolate specific inhibitors of the cyclin-dependent kinases (Cdks), the cell cycle transcription factor E2F, or the viral HPV16 E6 oncoprotein and HBEV core protein (Colas et al., 1996; Butz et al., 2001; Fabrizzio et al., 1999; Geyer et al., 2000). The TrioGEFD2 bait was constructed as follows: plasmid pMTHATrio1848-2298 (Bellanger et al., 1998) was digested with EcoRI/XhoI and the insert cloned in pEG202EcoRI/XhoI to generate the bait pEG202TroGEFD2. Yeast strain EGY048 (Colas et al., 1996) was transformed with pEG202TrioGEFD2 and subsequently with the library of Thioredoxin constrained aptamers according to standard procedures (Ito et al., 1983). After transformation, cells were allowed to recover for 4 hours in galactose containing medium before plating on selective galactose medium. Of the 2×10^6 screened colonies, those growing in the selective medium were recovered and retested for interaction. […] Binding specificity was investigated by screening for interaction with the following baits: TrioDH2 (a.a. 1848-2096), TrioPH2 (a.a. 2107-2223), TrioGEFD1 (a.a. 1232-1629), Dbl (a.a. 498-826), Vav (ala. 172-598) (Zhang et al, 1994), GEFD2 domain of Kalirin (a.a. 1640-1980)(Penzes et al., 2001), p115RhoGEF (a.a. 391-870)(Wells et al, 2002) and PDZRhoGEF (a.a. 964-1362) (Fukuhara et al., 1999). None of these aptamers interacted with other RhoGEF members such as Dbl, Vav, and the RhoA-specific GEFs p115RhoGEF and PDZRhoGEF.
# TrioGEFD1 (DH1PH1) = target: T3, TrioGEFD1 (DH1PH1) (Homo sapiens, UniProt O75962); experiment: Binding specificity of aptamers in yeast; design: key to Binding in yeast: +++^1 and +^1 represent respectively a full and a partial (see FIG. 1) binding capacity; +++^1 and +^1 represent respectively a full and a partial (see FIG. 1) binding capacity; −−^1 represents a lack of binding
# T3 construct: TrioGEFD1 (a.a. 1232-1629); expressed in transfected cells; host or cells: yeast
# Description: as §1, §2
# TrioDH2PH2L2051E = target: T4, TrioDH2PH2L2051E (Homo sapiens, UniProt O75962, L2110E); experiment: Binding specificity of aptamers in yeast; design: key: +++^1 and +^1 represent respectively a full and a partial (see FIG. 1) binding capacity; +++^1 and +^1 represent respectively a full and a partial (see FIG. 1) binding capacity; −−^1 represents a lack of binding; conditions: RhoGEF TrioDH2PH2L2051E
# T4 construct: TrioGEFD2 (DH2PH2, amino acids 1848-2298); expressed in transfected cells; host or cells: yeast
Molecule,Reversion of TrioGEFD2 inhibition of NGF-induced neurite outgrowth [1],Binding to the DH2 catalytic domain in yeast (TrioDH2 (a.a. 1848-2096)),Binding in yeast (GEFD2 domain of Kalirin; RhoGEF KalirinDH2PH2),Binding to the second RhoGEF domain of Kalirin in yeast (GEFD2 domain of Kalirin; growth on selective medium),Binding in yeast (TrioGEFD1 (DH1PH1); RhoGEF TrioDH1PH1),Binding to TrioGEFD1 (DH1PH1) in yeast (TrioGEFD1 (DH1PH1); growth on selective medium),Binding in yeast (TrioDH2PH2L2051E)
"AREGADGAICGYNLATLVMLGPSERVFCPLCEPCSSDIYELM [TRIPα, 42-amino acid peptide corresponding to the variable region of TRIAPα]",only the TrioGEFD2 effect is reversed,,,,,,
B1,,also binds to the DH2 catalytic domain; also recorded: interacted with the DH2 catalytic domain alone,+^1,weakly interacts; also recorded: interacted weakly,+^1,weakly interacts; also recorded: interacted weakly; also recorded: bound TrioGEFD1 in yeast,+++^1

# Source: patent US8088892B2, “Inhibitors of proteins from the Rho-GEF family” (Centre National de la Recherche Scientifique (C.N.R.S.), priority 2002, dated 2012)
